Experimental data: US20180208666A1 (VENTANA MEDICAL SYSTEMS, published 2018)
Ends that are not written are not given here.

Columns and labels:
[1] = molecular target: T1, peptide fragment of amino acid residues 266-277 of OX40 (human, also: conjugated to KLH for immunisation); assay: ELISA screen of antibody-expressing cells on the OX40 antigen (peptide 266-277)
T1 construct: It was conjugated to KLH for immunisation; also called OX40 antigen; 12-amino acid fragment
T1 peptide: EQADAHSTLAKI
Description: Anti-OX40 rabbit monoclonal antibodies were generated as schematically depicted in FIG. 1. Briefly, the peptide fragment of amino acid residues 266-277 of was synthesized. The 12-amino acid fragment intended for immunization was conjugated to keyhole limpet hemocyanin (KLH), an extensively used carrier protein for stimulating a substantial immune response via antibody production. New Zealand White rabbits were immunized with KLH conjugated OX40 antigen emulsified with complete Freund's adjuvant followed by a series of OX40 antigen booster emulsified with incomplete Freund's adjuvant. The antibody-expressing cells were screened by enzyme-linked immunoabsorbant assay (ELISA) using the OX40 antigen. All ELISA positive clones were further screened by immunohistochemistry (IHC), and the clone producing the antibody with the highest specificity was selected. For recombinant production of anti-OX40 antibodies, cDNA coding for the heavy chain and light chain sequences of the antibodies were cloned, expressed by co-transfection, and screened for binding to OX40 by IHC. Anti-OX40 monoclonal antibody SP197 was produced using these methods and subsequently purified by Protein A affinity chromatography. The heavy and light chain variable region sequences of the SP197 antibody are as follows.

[2] = molecular target: T2, human OX40 (human, UniProt P43489 29-277); assay: IHC on FFPE OX-40 transfected cells and FFPE tissues, ultraView DAB detection
T2 construct: no signal peptide limits are stated
T2 sequence: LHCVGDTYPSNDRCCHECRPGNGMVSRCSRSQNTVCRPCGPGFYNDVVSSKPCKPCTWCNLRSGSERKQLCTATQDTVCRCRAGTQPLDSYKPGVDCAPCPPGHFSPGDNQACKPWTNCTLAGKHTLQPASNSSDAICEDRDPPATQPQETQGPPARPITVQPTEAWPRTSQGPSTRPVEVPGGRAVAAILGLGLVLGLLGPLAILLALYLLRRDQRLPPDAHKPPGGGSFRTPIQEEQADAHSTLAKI
Protocol: IHC was performed using StdCC1 cell conditioning with ultraView Universal DAB Detection Kit (Ventana Medical Systems, Inc., Tucson, Ariz.). Primary antibody was incubated for 16 min at 37° C. on a BenchMark ULTRA automated slide stainer (Ventana Medical Systems, Inc., Tucson, Ariz.). Results are shown at Fig. (A) Mock transfected cells (negative control cells); (B) OX-40 transfected cells (positive control cells); (C) Reactive lymph node; and (D) Prostate adenocarcinoma.

B1: Anti-OX40 monoclonal antibody SP197 (antibody, V domains shown)
VH: QSLEESGGRLVAPGGSLTLTCTVSGIDLSSDNIQWVRQAPGKGLEWIGAVDYNNKPFYANWAKGRFTISKTSSTTVDLKMTSLTTEDTATYFCAKNTFSPWGPGTLVTVSS
VL: DPAMTQTPSSTSAAVGGTVTINCQSSQSVYNANHLSWFQQKPGQPPKRLIYYISTPDSGVPPRFSGSGSGTQFTLTISGVQCDDAATYYCAALNSDEVFTFGGGTEVVVK
notes: also called rabbit anti-human OX-40 monoclonal antibody (SP197); anti-OX40 antibody SP197
binding result [1]: binds
binding result [2]: binds
